Target: T1, hPCSK9 (Homo sapiens, UniProt Q8NBP7)
T1 construct: purchased Sino Biologicals, China
Assay: C6 hPCSK9 challenge model, LDL-R expression in mouse liver (Western blot)
Format: in vivo
Conditions: healthy control 100%, hPCSK9 alone 0%
Procedure: Sixty minutes after the injection of hPCSK9, the animals are anaesthetised in isoflurane and euthanised by cervical dislocation. The liver is then quickly excised and snapfrozen in liquid nitrogen. The livers are kept at −80° C. until analysis.
The proteins are transferred to nitrocellulose membranes (iBlot 2 NC Regular stacks, novex #IB23001) according to manufacturer's instructions (Life Technology). Equal protein transfer is confirmed by Ponceau S (Sigma, P7170) staining of the membranes and the membranes are further blocked in blocking buffer (TBS-T, 2% Tween). […] Quantitative analysis of chemiluminescent signals from Western blots is done with MultiGauge software (Fujifilm).
The LDL-R expression levels were measured by Western Blot, and the expression levels compared.

T1 sequence (Q8NBP7 153-692): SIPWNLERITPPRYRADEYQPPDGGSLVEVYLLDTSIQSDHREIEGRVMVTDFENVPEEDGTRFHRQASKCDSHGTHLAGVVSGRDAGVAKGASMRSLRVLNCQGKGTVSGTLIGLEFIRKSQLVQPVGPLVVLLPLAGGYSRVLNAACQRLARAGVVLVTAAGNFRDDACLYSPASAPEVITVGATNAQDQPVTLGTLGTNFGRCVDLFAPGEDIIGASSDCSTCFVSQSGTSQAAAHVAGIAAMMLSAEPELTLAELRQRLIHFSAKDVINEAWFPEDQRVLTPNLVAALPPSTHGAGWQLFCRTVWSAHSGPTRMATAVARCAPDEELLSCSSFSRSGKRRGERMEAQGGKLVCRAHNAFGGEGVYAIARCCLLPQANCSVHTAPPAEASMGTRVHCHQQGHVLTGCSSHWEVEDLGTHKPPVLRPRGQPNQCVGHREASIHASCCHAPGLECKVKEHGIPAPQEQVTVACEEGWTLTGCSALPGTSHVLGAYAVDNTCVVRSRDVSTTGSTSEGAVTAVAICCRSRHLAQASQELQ

Substance: Alirocumab: anti-PCSK9 antibody, control molecule in the hPCSK9 challenge model
- Percentage of baseline (%) Mean ± SEM (compound 30 nmol/kg): 100 ± 13%
- Percentage of baseline (%) (inhibitor 22 nmol/kg): 157%

— patent US11130794B2, “Bifunctional compounds” (Novo Nordisk A/S, priority 2017, dated 2021)
